From paper PMC4655273, “Schwann Cell Expressed Nogo-B Modulates Axonal Branching of Adult Sensory Neurons Through the Nogo-B Receptor NgBR” (Frontiers in Cellular Neuroscience, 2015)

Molecular target: T1, Nogo-B (mouse (endogenous in primary Schwann …, UniProt Q99P72-5 1-356))
T1 sequence (looked up): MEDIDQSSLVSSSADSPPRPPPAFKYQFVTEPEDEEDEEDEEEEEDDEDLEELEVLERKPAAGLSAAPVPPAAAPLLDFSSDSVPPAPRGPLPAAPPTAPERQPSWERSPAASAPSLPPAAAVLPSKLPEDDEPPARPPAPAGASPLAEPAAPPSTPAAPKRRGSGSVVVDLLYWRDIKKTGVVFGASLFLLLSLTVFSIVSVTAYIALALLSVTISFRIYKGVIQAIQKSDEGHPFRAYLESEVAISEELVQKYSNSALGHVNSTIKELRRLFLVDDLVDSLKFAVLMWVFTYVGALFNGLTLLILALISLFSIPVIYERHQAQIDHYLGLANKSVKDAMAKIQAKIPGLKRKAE
Test: cell-based or functional assay

total neurite length (TNL) of adult wildtype sensory neurons on wildtype Schwann cells with recombinant NgBR-Ecto at 1 μg/ml, relative to control (set to 1.0): 0.74 relative to the control levels
B1: Nogo-B receptor NgBR (receptor, mouse (endogenous in sensory neurons), UniProt Q99LJ8 1-297, looked up)
chain: MTGLYELVWRVLHALLCLHLTLTSWLRVRFGTWNWIWRRCCRAASAAVLAPLGFTLRKPRAVGRNRRHHRHPHGGPGPGPGPAATHPRLRWRADVRSLQKLPVHMGLLVTEEVQEPSFSDIASLVVWCMAVGISYISVYDHQGIFKRNNSRLMDEILKQQQELLGQDCSKYSAEFANSNDKDDQDLNCPSAVKVLSPEDGKADIVRAAQDFCQLVAQQQRKPTDLDVDLLGSLLSSHGFPDPDLVLKFGPVDSTLGFLPWQIRLTEIVSLPSHLNISYEDFFSALRQYAACEQRLGK
